# Reference: patent US12037419B2 (The Feinstein Institutes for Medical Research, priority 2016, dated 2024)
# B1: HMGB1: Recombinant HMGB1 (Calmodulin Binding Protein Epitope, Cbp tagged) (protein)
# chain: MGKGDPKKPRGKMSSYAFFVQTCREEHKKKHPDASVNFSEFSKKCSERWKTMSAKEKGKFEDMAKADKARYEREMKTYIPPKGETKKKFKDPNAPKRPPSAFFLFCSEYRPKIKGEHPGLSIGDVAKKLGEMWNNTAADDKQPYEKKAAKLKEKYEKDIAAYRAKGKPDAAKKGVVKAEKSKKKKEEEEDEEDEEDEEEEEDEEDEDEEEDDDDE
# modifications: left off: small tags and cut ends
# B2: KLKEKYEKDIAAYRAKGKPDAAKKGVVKAEKSKKGGGGSGGGGSGGGGSKGEQ GEPGAPGI (peptide)
# chain: KLKEKYEKDIAAYRAKGKPDAAKKGVVKAEKSKKGGGGSGGGGSGGGGSKGEQGEPGAPGI
# modifications: Artificial based on human
# notes: HMGB1 B box-linker-C1q peptide
# Experiments:
# human monocytes [1] = test: Induction of anti-inflammatory molecules / M2-like phenotype (Mer, PDL-1, IL-10, CD163) in monocytes; assay type: cell-based; conditions: together with HMGB1 3 μg/ml, C1q 25 μg/ml or C1q tail 53 μg/ml, 24 h
# Experimental: (§1) Monocyte isolation and stimulation: Human PBMCs were obtained following institutional guidelines of the Feinstein Institute for Medical Research (Feinstein) and isolated from blood of healthy donors by density centrifugation (New York Blood Bank). Monocytes were negatively enriched using a human monocyte enrichment kit (Stem Cell Technology). Purity of monocytes (≥90% CD11b+CD14+LAIR-1+) was determined by flow cytometry. […] Splenic murine monocytes from wild type mice, RAGE deficient or LAIR-1 conditional knockout mice were isolated using EasySep mouse monocyte enrichment kit (Stem Cell Technology). C57BL/6 mice, Lysozyme2-Cre transgenic mice were purchased from Jackson Laboratory. Myeloid specific LAIR-1 conditional knockout mice (Lysozyme2-Cre×LAIR fl/fl) were bred and maintained in our facility (Feinstein) under specific pathogen-free conditions. RAGE deficient mice (Department of Medicine, Karolinska Institute Stockholm, Sweden) were maintained at Feinstein. Eight-to ten weeks old male mice were used for experiments. All animal procedures were approved by the Feinstein Institutional Animal Care and Use Committee.
# RT-PCR analysis and primers: Total RNA was extracted from cells (1-2×10^6 cells per sample) with an RNeasy kit (Qiagen, Venlo, Limburg, Netherlands) and cDNA was generated using an iScript cDNA synthesis kit (Bio-Rad laboratories). […] The relative induction was calculated by 2-ΔΔCt.
# (§2) Cytokine analysis: Cytokine levels were measured using a Human Proinflammatory 7-plex assay following the manufacturer's protocols (Meso Scale Discovery (MSD). MSD plates were analyzed on the MS2400 imager (MSD). All standards and samples were run in duplicates.
# Flow cytometry: Cells were suspended in staining buffer containing 2% BSA and incubated with Fc block (Miltenyi Biotec) for 15 min on ice. […] Events were acquired using either an LSRII or Fortessa cell analyzer (BD Biosciences), and data were analyzed using FlowJo (Tree star).
# RAGE = target: T1, RAGE (Homo sapiens, UniProt Q15109); test: SPR assay of C1q and RAGE binding; conditions: data not shown
# T1 construct: purchased R&D Systems
# T1 sequence (Q15109 23-342 limits assumed): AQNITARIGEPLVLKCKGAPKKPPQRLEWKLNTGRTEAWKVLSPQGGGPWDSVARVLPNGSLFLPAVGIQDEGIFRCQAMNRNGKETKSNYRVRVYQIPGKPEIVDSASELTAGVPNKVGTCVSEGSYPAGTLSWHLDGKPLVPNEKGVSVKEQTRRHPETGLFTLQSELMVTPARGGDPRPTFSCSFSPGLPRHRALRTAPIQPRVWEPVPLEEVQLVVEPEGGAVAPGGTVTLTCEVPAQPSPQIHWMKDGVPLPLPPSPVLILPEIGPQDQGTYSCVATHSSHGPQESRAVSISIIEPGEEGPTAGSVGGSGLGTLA
# Experimental: Surface Plasmon Resonance analysis (SPR): For real-time binding interaction studies, a BIAcore T200 instrument (GE Healthcare) was used. […] A 1:1 mixture of N-hydroxysuccinimide and N-ethyl-N-(dimethyaminopropyl) carbodiimide was used to activate 2 flow-cells of the CMS chip. […] The analytes were diluted in 1×PBS+0.01% (vol/vol) tween-20 buffer. The analytes were sequentially injected at a flow rate of 30 μl/min for 60 s at 25° C. The KD was dertermined using the BIAcore evaluation software 2.0 (GE Healthcare) supposing a 1:1 binding ratio.
# human monocytes [2] = test: Monocyte to DC differentiation with GM-CSF and IL-4 (flow cytometry); assay type: cell-based; conditions: HMGB1 alone 24 h, then GM-CSF and IL-4
# human monocytes [3] = test: HMGB1-induced monocyte activation (cytokine mRNA by q-PCR, protein by ELISA/MSD); assay type: cell-based; conditions: HMGB1 alone
# Experimental: as §1
# RT-PCR analysis and primers: Total RNA was extracted from cells (1-2×10^6 cells per sample) with an RNeasy kit (Qiagen, Venlo, Limburg, Netherlands) and cDNA was generated using an iScript cDNA synthesis kit (Bio-Rad laboratories). Real Time-PCR was performed on a Light Cycler 480 II (Roche) using Light Cycler 480 master mix with primers (Applied Biosystems) for IFNα1 (Hs00256882), IFNα7 (mm02525960), MX1 (Hs00182073, mm01217998), IL-6 (Hs00985639, mm99999064), TNFα (Hs00174128, mm00443258), IL-12a (Hs00168405), Mer (Hs01031973), PDL-1 (Hs01125301), IL-10 (Hs00961622), CD163 (Hs00174705), HPRT1 (Hs99999909, mm01545399) and Polr2a (Hs00172187). The genes of interest were normalized to the expression of house keeping genes and were compared to a control condition with no treatment. The relative induction was calculated by 2-ΔΔCt.
# Transfection: For RNA interference assays, human monocytes were transfected using an Amaxa Nucleofector kit (Lonza) with a greater than 40% transfection efficiency. siRNAs were obtained from Qiagen. The target sequence of human LAIR1-11 is […] (SEQ ID NO:9). The efficiency of knockdown was determined by flow cytometry and q-PCR.
# as §2
# human monocytes [4] = test: SeaHorse cellular flux assay (OCR, ECAR); assay type: cell-based; conditions: HMGB1 3 μg/ml alone, 24 h
# Experimental: Cell metabolism analysis using SeaHorse Cellular Flux assay. […] One hour prior to measurement, culture medium was exchanged for assay medium (unbuffered DMEM (Sigma), supplemented with 10 mM Glucose, 1 mM Pyruvate and 2 mM Glutamine for mitochondrial assays, or with 2 mM Glutamine alone for glycolytic assays. Reagents were injected during the measurement to achieve final concentrations of oligomycin (1 μM), carbonyl cyanide p-(trifluoromethoxy) phenylhydrazone (FCCP) ([…]), Rotenone/antimycin A (0.5 μM). Glucose (10 mM), and 2-Deoxy-D glucose (50 mM). Oxygen consumption rate (OCR) and Extracellular acidification rate (ECAR) values were measured using a SeaHorse XfP instrument (SeaHorse bioscience). Measured values were normalized to the number of live cells present in each well as determined by a trypan blue staining by the end of each run. For OCR/ECAR ratio calculations, an average of the last two basal readings was used for both OCR and ECAR.
# [5] = test system: allogeneic primary human CD4 T cells; test: Allogeneic mixed lymphocyte reaction; assay type: cell-based; conditions: HMGB1 3 μg/ml alone
# Experimental: Allogeneic CD4 T lymphocytes were isolated from blood using the Naïve CD4+ T cell isolation kit II (Miltenyi Biotec.) following the manufacturer's protocol. Cells were analyzed by flow cytometry (>90%). T cells were labeled with 5 μM Cell Trace Violet cell proliferation kit (Thermo Fisher Scientific), added to mono/macrophages at a density of 2×10^5 cells/well (a 1:2 ratio) in the presence of 1 μg/ml anti-CD3 (OKT3, eBioscience). Control cultures contained medium only or T cells or mono/macrophages alone. After 4 days, cells were stained with FITC-anti-CD4, PerCPCy 5.5-CD14, PE-LAIR-1 and fixable viability dyes (FVD, eBioscience) for 20 min at room temperature and subsequently washed and fixed. Live cells (FVD-negative cells) were then gated on CD4-positive, and cell trace violet was assessed by flow cytometry on a BD LSR II (BD Biosciences). Cell proliferation was analyzed as described (51). The % divided cells was defined as the probability that a cell has divided at least once from the original population. The division index was defined as the average number of cell divisions that a cell in the original population has undergone.
# murine macrophages = test: RvD2 and LTB4 in murine macrophages after HMGB1 in vivo (FIG. 22); design: species or system mouse
# NZB/W mice = test: NZB/W lupus mice in vivo (FIG. 23-25); design: species or system mouse
molecule,measurement,setting,value
C1q tail: C1q tail purified from whole C1q; collagen-like tail,"transcription and protein expression of anti-inflammatory factors (Mer, PDL-1, IL-10, CD163)",human monocytes [1],did not mediate similar effects
same,binding to RAGE,RAGE,No binding
B1,monocyte to DC differentiation after pre-treatment with HMGB1,human monocytes [2],monocyte to DC differentiation occurred
same,"transcription and secretion of type 1 IFN, IFN-inducible genes and proinflammatory cytokines",human monocytes [3],dramatically increased
same,OCR/ECAR ratio,human monocytes [4],significantly decreased
same,baseline oxidative phosphorylation (OCR) and glycolytic metabolism (ECAR),human monocytes [4],enhanced
same,stimulation of T cells by monocytes exposed to HMGB1,[5],induced the strongest mixed lymphocyte reaction
B2,LTB4 induction by HMGB1 in murine macrophages,murine macrophages,abolishes LTB4 induction
same,RvD2 in murine macrophages,murine macrophages; HMGB1 challenge,induces RvD2
same,anti-DNA IgM/IgG-producing splenocytes,NZB/W mice; NZB/W mice in vivo,decreases anti-DNA IgM/IgG-producing splenocytes
same,inflammatory and anti-inflammatory markers in splenocytes,NZB/W mice; NZB/W mice in vivo,decreases inflammatory and increases anti-inflammatory markers
same,progression of serum anti-dsDNA antibodies,NZB/W mice; NZB/W mice in vivo,slows the progression
same,kidney IgG deposition,"NZB/W mice; NZB/W mice, staining data not shown",decreases kidney IgG deposition
